# Results taken from the nanobody polyreactivity screen of Harvey et al. (2022).
# Assay: yeast display, Sf9 membrane polyspecificity reagent, FACS + sequencing; frameworks hold sequencing errors
# How it was run: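 A nanobody's polyreactivity label depends on the gate it was sorted from. Yeast display cells were stained with 10% biotinylated, detergent-solubilized Sf9 membrane reagent for 1 hour at 4 °C, enriched on streptavidin microbeads and sorted by FACS. The low and high (top ~1%) gates were set on anti-HA fluorescence for expression and streptavidin fluorescence for reagent binding.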
row,Sequence,polyreactivity (PSR sort gate)
1,QVQLVESGGGLVQAGGSLRLSFAASGRIFPHNAMGWYRQAPGKERELVAAISSNGGSTYYADSVKGRFTISRDNAKNTVYLQMNSLKPEDTAVYYCAKYRYFAGDGDYWGQGTQVTVSS,low polyreactivity
2,QVQLVESGGGLVQAGGSLRLSFAASGRTFDRNAMGWYRQAPGKERELVARITIDGSTNYADSVKGRFTISRDNAKNTVYLQMNSLKPEDTAVYYCATDQLSLSWYFRPYDYGYWGQGTQVTVSS,high polyreactivity
3,QVQLVESGGGLVQAGGSLRLSFAASGRTFGTNGMGWYRQAPGKEREFVAAITWNGGGTYYADSVKGRFTISRDNAKNTVYLQMNSLKPEDTSVYYSAKRTRWNYKGYGTGGYYWGQGTQVTVSS,high polyreactivity
4,QVQLVESGGGLVQAGGSLRLSFAASGRTFVINAMGWYRQAPGKERELVAAITWRGGSTYYADSVKGRFTISRDNAKNTVYLQMNSLKPEDTAVYYCAARWFPWLQLKRYDYWGQGTQVTVSS,low polyreactivity
5,QVQLVESGGGLVQAGGSLRLSFAASGRTFYYYASRWYRQAPGKERELVARIRSGGSTNYADSVKGRFTISRDNAKNTFYLQMNSLKPEDTAVYYCNALGAKGYVKGFDYRGQGTQVTVSS,low polyreactivity
6,QVQLVESGGGLVQAGGSLRLSFAASGSIFDDNAMGWYRQAPGKERELVAAITSTDSTNYADSVKGRFTISRDNAKNTVYLQMNSLKPEDTAVYYCARDIKHATSYEALYYSDYDYWGQGTQVTVSS,low polyreactivity
7,QVQLVESGGGLVQAGGSLRLSFAASGSIFIRNAMGWYRQAPGKERELVAAISIGDGSTYADSVKGRFTISRDNAKNSVYLQMNSLKPEDTAVYYCNAAGIVWRYYSYGYWGQGTQVTVSS,low polyreactivity
8,QVQLVESGGGLVQAGGSLRLSFAASGSTFKRYLMGWYRQAPGKERELVAAISSRGGSTYYADSVKGRFTISRDYANNTVYLQMISLKPEYTAVFYCATANVRAEDYWGQGTQVTVSS,high polyreactivity
9,QVQLVESGGGLVQAGGSLRLSFAATGSILLRYAMGWYRQAPGKERELVAAISYDGGGTFYADSVKGRFTISRDNAKNTVYLQMHSLKPEDTAVYYCAARVIFRVKGLEYWGQGTQVTVSS,low polyreactivity
10,QVQLVESGGGLVQAGGSLRLSFAAYGRTIRWNAMGWYRQEPGKERELVAAITSRGGSTYYADSVKGRFTISRDNAKNTVYLQMNSLKPEDTAVYYCAKQPKPPPVTGYDYWGQGTQVTVSS,high polyreactivity
11,QVQLVESGGGLVQAGGSLRLSFAPSGRTIDPNAMGWYRQAPGKERELVAAITRTGVRKYYADSVKGRFTISRDNAKNTVYLQMNSLKPEDTAVYYCAASYSGRQDRYPHYDYWGQGTQVTVSS,low polyreactivity
12,QVQLVESGGGLVQAGGSLRLSGAASGGTFSNYAMGWYRPAPGKEREVVAAIRWRGGNTYYADSVKGRFTISRDNAKNTVYLQMNSLKPEDTAVYYCAAQTHDYTRSVGTTAYDYWGQGTQVTVSS,low polyreactivity
13,QVQLVESGGGLVQAGGSLRLSGAASGRIFWYNAMGWYRQAPGKEREVVAGITSGGRTNYADSVKGRFTISRDNAKNTVYLQMNSLKPEDTAVYYCAATHSLRMYYLGQGTQVTVSS,low polyreactivity
14,QVQLVESGGGLVQAGGSLRLSGAASGRTLKWYAMGWYRQPPGKERELVAAISWSGGSTYYADSVKGRFTISRDNAKNTVYVQMNSLKPEDTAVYYCAAYYIYSSVGKSLYASMEYWGQGTQVTVSS,low polyreactivity
15,QVQLVESGGGLVQAGGSLRLSGAASGSTFQYYAMGWYRQAPGKERELVAAISDGTNTNYADSVKGRFTISRDNAKNTVYLQMNSLKPEDTAVYYCAARFSSIVKYVGIGTDEYDYWGQGTQVTVSS,low polyreactivity
16,QVQLVESGGGLVQAGGSLRLSGAASGSTFRGYAMGWYRQAPGKERELFAAMTYISDSTYYADSVKGRFTISRDNAKNTVYLQMNSLKPEDTAVYYCNAYYDGDWRYTSQETGDHWGQGTQVTVSS,low polyreactivity
17,QVQLVESGGGLVQAGGSLRLSLAASGSIFSYYAMGWYRQAPWKERELVAAISYSGSDTYYADSVKGRFTISRDNAKNTVYLQMNSLNPEDTAVYYCAAEDPSYSYDYWGQGTQVTVSS,low polyreactivity
